In patent publication US5374506A, “Amino acid sequence for a functional human interleukin-8 receptor” (The United States of America as represented by the …, priority 1991, dated 1994):

Key:
human IL-8 receptor [1] = target: T1, human IL-8 receptor (Homo sapiens, UniProt P25025); assay: calcium efflux assay in Xenopus oocytes injected with p2 cRNA; assay type: cell-based; conditions: for calcium mobilization / activation of the IL-8 receptor (result in words): FIG. 2C; for rank order of potency for activating calcium flux: IL-8 receptor expressed by Xenopus oocytes, FIG. 2(C)
T1 construct: expressed in transfected cells; host or cells: Xenopus oocytes injected with p2 cRNA
T1 sequence (P25025 6-360): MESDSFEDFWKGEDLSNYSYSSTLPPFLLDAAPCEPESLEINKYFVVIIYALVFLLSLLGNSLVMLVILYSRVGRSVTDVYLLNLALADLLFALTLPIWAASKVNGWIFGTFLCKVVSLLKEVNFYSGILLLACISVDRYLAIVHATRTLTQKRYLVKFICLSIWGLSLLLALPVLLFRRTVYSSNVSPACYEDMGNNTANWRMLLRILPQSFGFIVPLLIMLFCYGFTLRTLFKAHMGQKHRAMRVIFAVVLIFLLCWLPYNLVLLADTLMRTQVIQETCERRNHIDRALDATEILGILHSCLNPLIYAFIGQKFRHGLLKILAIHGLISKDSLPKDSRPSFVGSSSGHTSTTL
Description: (§1) The materials and methods used for the calcium efflux assay were as described in P. M. Murphy, E. K. Gallin, H. L. Tiffany, J. Immunol. […] Oocytes were microinjected with RNA samples in a total volume of 50 nl per oocyte 3 days after harvesting and were then incubated at 20° to 23° C. for 2 to 4 days. Oocytes were then incubated with ^45 Ca^2+ [50 μCi/ml (ICN Biomedicals, Costa Mesa, Calif.)] for 3 hours. After ten washes with medium, individual oocytes were stimulated with ligand in wells of a 96-well tissue culture plate containing 100 μl of medium. Three 100 μl samples of the incubation medium were collected and analyzed by liquid scintillation counting: a) the final 100 μl wash (20 min) before application of ligand; b) fluid containing the stimulus, removed after a 20 min incubation with the oocyte; and c) the oocyte solubilized in SDS (1%) in medium 20 min after stimulation. Data are presented as the mean±standard error of the mean (SEM) of the percent of loaded ^45 Ca^2+ that was released by individual oocytes in response to the stimulus, or [(b-a).div.(b+c)]×100. FMLP and recombinant human C5a was from Sigma, St. Louis, Mo. Recombinant human IL-8 was from Genzyme, Boston, Mass. Recombinant human NAP-2 was from Bachem, Philadelphia, Pa.

[2] = test system: oocytes injected with 50 ng of HL60 neutrophil RNA; assay: calcium efflux assay in oocytes injected with HL60 neutrophil RNA; assay type: cell-based, Xenopus; conditions: oocytes injected with 50 ng HL60 neutrophil RNA
Description: as §1

receptor encoded by p2 = assay: binding of 125I-labeled IL-8 and gro to COS cells transiently transfected with pCDNAI-p2; parameters: species or system human; conditions: receptor encoded by p2 expressed in COS cells
Description: To further support the data obtained from the oocyte studies, the p2 cDNA was also cloned into the vector pCDNAI. When COS cells are transiently transfected with the pCDNAI-p2 construct, specific binding sites were detected with ^125 I-labeled IL-8 and gro protein. In contrast to the ligand binding affinity in the oocyte environment, the affinity for the ligand when the receptor encoded by p2 was expressed in the COS cell was higher. Specifically, the kd for IL-8 was 2 nM and the kd for gro was 1.3 nM.

[3] = target: human interleukin-8 receptor encoded by cDNA clone p2 (human)
recombinant human C5a = recombinant human C5a (human, UniProt P01031); assay: displacement of [125I]-IL-8 from Xenopus oocytes injected with p2 cRNA
[4] = target: gro (melanoma growth-stimulatory activity) (Homo sapiens (Human), UniProt P09341, 125I label in the COS cell binding experiment); assay: binding of 125I-labeled gro to COS cells transiently transfected with pCDNAI-p2
recombinant human IL-8 = recombinant human IL-8 (human, UniProt P10145, 125I label in the binding experiments); assay: binding of 125I-labeled IL-8 to COS cells transiently transfected with pCDNAI-p2
human IL-8 receptor [5] = target: T1, human IL-8 receptor; assay: binding of [125I]-IL-8 to oocytes injected with p2 cRNA; conditions: 1 μM competitor
Description: Total ( ) and non-specific binding (.largecircle.) was determined by incubating oocytes injected with p2 cRNA with the indicated concentration of radioligand in the absence or presence of unlabeled IL-8 (1 μM), respectively. The data shown are the mean±SEM of triplicate determinations per point and are representative of two separate experiments. Nonspecific binding was subtracted from total binding to determine specific binding (.quadrature.). […] Specific binding of [^125 I]-IL-8 by oocytes injected with water was undetectable.
IL-8 was iodinated to a specific activity of 260 Ci/mmole as described in H. L. Malech, J. P. Gardner, D. F. Heiman, S. A. Rosenzweig, J. Biol. Chem. 260, 2509 (1985). The radioligand was qualified by binding to human neutrophils. Single oocytes were incubated with [^125 I]-IL-8 for 30 min on ice in 10 μl binding buffer (Hanks balanced salt solution with 25 mM HEPES, 1% bovine serum albumin, pH 7.4). Unbound ligand was removed by pelleting the oocyte through 300 μl F50 silicone fluid (General Electric, Waterford, N.Y.). The tube was quick-frozen and gamma emissions from the amputated tips were counted.

[6] = Xenopus oocytes injected with p2 cRNA

Molecule: CSCC[C@H](NC=O)C(=O)N[C@@H](CC(C)C)C(=O)N[C@@H](Cc1ccccc1)C(=O)O [FMLP, N-formyl methionyl-leucylphenylalanine, reference compound]
- calcium mobilization / activation of the IL-8 receptor (result in words) (human IL-8 receptor [1]; [6]): did not respond
- calcium efflux response (percent of loaded 45Ca2+ released) ([2]; 1 μM ligand): 51±3%

Molecule: IL-8: inflammatory cytokine, potent chemoattractant for neutrophils; recombinant human IL-8 from Genzyme
- rank order of potency for activating calcium flux (human IL-8 receptor [1]): IL-8>gro>NAP-2
- EC50 (human IL-8 receptor [1]; Xenopus oocytes injected with p2 cRNA, FIG. 2A, read-out: EC50 of intracellular calcium mobilization): 20 nM
- EC50 in oocytes relative to value reported for human neutrophils (human IL-8 receptor [1]; oocyte EC50 higher than that reported for human neutrophils with recombinant human IL-8): approximately 20 fold
- Kd (receptor encoded by p2): 2 nM

Molecule: gro: member of the macrophage inflammatory protein-2 (MIP-2) family of cytokines, structurally related to IL-8
- rank order of potency for activating calcium flux (human IL-8 receptor [1]): IL-8>gro>NAP-2
- Kd (receptor encoded by p2): 1.3 nM

Molecule: recombinant human IL-8 (from UniProt P10145) (ligand)
- calcium efflux (mobilization of intracellular calcium), EC50 [3]: 20 nM

B1: human interleukin-8 receptor encoded by cDNA clone p2 (receptor)
chain: T1 sequence (P25025 6-360)
- binding result (recombinant human C5a): no binding (tested: 1 µM)
- Kd [4]: 1.3 nM
- Kd (recombinant human IL-8): 2 nM

B2: NAP-2: member of the MIP-2 family of cytokines; recombinant human NAP-2 from Bachem (protein)
chain: AELRCMCIKTTSGIHPKNIQSLEVIGKGTHCNQVEVIATLKDGRKICLDPDAPRIKKIVQKKLAGDESAD
- rank order of potency for activating calcium flux (human IL-8 receptor [1]): IL-8>gro>NAP-2

B3: C5a: structurally unrelated chemoattractant, 74 amino acids; recombinant human C5a from Sigma (protein)
chain: TLQKKIEEIAAKYKHSVVKKCCYDGACVNNDETCEQRAARISLGPRCIKAFTECCVVASQLRANISHKDMQLGR
- calcium mobilization / activation of the IL-8 receptor (result in words) (human IL-8 receptor [1]; [6]): did not activate
- displacement of [125I]-IL-8 (human IL-8 receptor [5]): did not displace
- calcium efflux response (percent of loaded 45Ca2+ released) ([2]; 500 nM ligand): 16±5%
